In patent US20250197490A1, “ANTI-CORTICOTROPIN-RELEASING HORMONE ANTIBODIES AND USE IN CONGENITAL ADRENAL HYPERPLASIA” (HBM ALPHA THERAPEUTICS, INC., priority 2021, published 2025):
Entries after “also recorded” stand apart in the source; their conditions may differ.

T1: human UCN1 (Homo sapiens, UniProt P55089)
T1 sequence (P55089 83-122 limits assumed): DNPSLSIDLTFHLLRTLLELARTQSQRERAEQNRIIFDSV


Key:
Mrap1 KO mice = Mrap1 KO mice constitutively high ACTH model; assay type: in vivo, mouse; conditions: for plasma ACTH concentration in Mrap1 KO mice: single dose of mAb 20 mg/kg
human UCN1 = biological target: T1, human UCN1; assay: Human UCN1 ELISA binding; conditions: in words
Protocol: Streptavidin (Thermo, Cat: 21125) was diluted in PBS to a concentration of 2 μg/ml. 100 μl of diluted streptavidin was added per well to ELISA microplates, and the plates were incubated overnight at 4° C. Plates were blocked with ELISA blocking solution (containing 2% w/v BSA, 0.05% (v/v) Tween-20, pH 7.4 PBS buffer) at 37° C. for 1 hour, and then incubated with 0.5 μg/mL CRH (NT biotin), 0.5 μg/mL CRH (CT biotin), 1 μg/mL human UCN1 (NT biotin), or 1 μg/mL human UCN1 (CT biotin) for 1 hour at 37° C. Plates were then washed and incubated with diluted anti-CRH antibody (Ab) at 15 μg/ml (100 nM, 10 diluted, 8 points) for 1 hour at 37° C. Subsequently, plates were washed and incubated with HRP-conjugated goat anti-human IgG (H+L) antibody (Jackson, Cat: 109-035-088) at 37° C. for 1 hour. […] 100 μL of ELISA stopping solution (Solarbio, Cat #: C1058) was added to terminate the reaction, and the optical density at 450 nm (OD450 nm) was determined by an ELISA plate reader (Molecular Devices, Spectra max 384 plus).
Streptavidin (Thermo, Cat: 21125) was diluted in PBS with a concentration of 2 μg/mL. […] 100 μL of ELISA stopping solution (Solarbio, Cat #: C1058) was then added to terminate the reaction, and the OD450 nm was determined by an ELISA plate reader (Molecular Devices, Spectra max 384 plus).

[1] = tested on: wildtype female C57BL/6 mice; assay: Wildtype mice restraint-stress model (ACTH and corticosterone); assay type: in vivo, mouse
Protocol: 8-10 week old wildtype female C57BL/6 mice were obtained from Charles River Laboratories. Mrap1 KO mice were obtained from Queen Mary University of London, UK. SSR125543A, a small molecule CRHR1 antagonist, was obtained from Axon Medchem (Cat #Axon 1799). Mouse Corticosterone (55-Corms-E01) and adrenocorticotropic hormone (ACTH) ELISA kits (21-ACTHU-E01) were obtained from ALPCO, USA. All procedures were carried out in accordance with the Guide for the Care and Use of Laboratory Animals of the National Institutes of Health. Protocols were approved by Charles River Laboratories Institutional Animal Care and Use Committee (IACUC).
To determine the effect of nonpainful physical restraint upon stress responses, mice were restrained in 50 ml polypropylene ventilated tubes in which the tip was cut off with a razor blade to allow the mouse to breathe easily for 15-20 minutes. A mouse was directed to the open tube and crawled in. A piece of paper towel was put behind the mouse so that it could not back out, and the cap was screwed on. The mouse was placed back in its cage, ventral size down on the bedding. This stressor is not considered painful, as mice are confined to a limited space (in a ventilated restraint tube) but not in an unnatural physical position. The investigator was present in the room during the entire procedure. At the end of the procedure, the mouse was removed by the tail.
On day 1, each mouse was injected intraperitoneally with 20 mg/kg of anti-CRH mAbs, hIgG1 or PBS (5 mice per group). On day 2 or 3, and 14 each mouse was subjected to physical restraint-stress described above for 15 or 20 min. Immediately after restraint-stress, 200 μl of blood was collected in EDTA tubes from the submandibular vein of each mouse. Plasma was separated using a refrigerated centrifuge (4° C. at 500×g for 10 min) and snap-frozen in dry ice for subsequent ACTH and corticosterone ELISA measurement.
On day 1, one half of mice were injected IP with 20 mg/kg of anti-CRH Ab or hIgG1 (5 mice per group). […]

Row | Molecule | plasma ACTH concentration in Mrap1 KO mice (Mrap1 KO mice) | binding to human UCN1 peptides in ELISA (human UCN1) | efficacy versus SSR125543A in reducing plasma ACTH levels (Mrap1 KO mice; Mrap1 KO mice, PR302064 20 mg/kg, PR302334-24 20, 10 and 5 mg/kg, SSR125543A 30 mg/kg) | extent of inhibition of ACTH versus SSR125543A (Mrap1 KO mice; Mrap1 KO mice, SSR125543A 30 mg/kg) | duration of the effects of the mAb ([1]; wildtype mice restraint model) | extent of inhibition of ACTH and corticosterone versus SSR125543A ([1]; wildtype mice restraint model, SSR125543A 30 mg/kg) | efficacy versus SSR125543A in reducing plasma ACTH and corticosterone levels ([1]; wildtype mice restraint stress, mAb 20 mg/kg and 5 mg/kg, SSR125543A 30 mg/kg) | plasma ACTH concentrations in Mrap1 KO mice, dose dependent (Mrap1 KO mice; 20 mg/kg and 5 mg/kg, day 2 and day 16)
1 | PR302334-26: Series 9 humanized variant of PR302334; VH SEQ ID NO: 277, VL SEQ ID NO: 328 (antibody, V domains shown, PR302334-18 VH, PR302334-26 VH, PR302334-27 VH; PR302334-10 VL, PR302334-24 VL, PR302334-26 VL, PR302334-4 VL) VH: EVQLVESGGGLVQPGGSLRLSCAASGFTFSTYAMSWVRQAPGKGLEWVASIRSGGTTYYPDSVKGRFTISRDNSKNSLYLQMNSLRAEDTAVYYCTRGIDWGQGTTVTVSS VL: DIVMTQSPDSLAVSLGERATINCKASQSVNNDVAWYQQKPGQPPRLLIYYASNRYTGVPDRFSGSGSGTDFTLTISSLQAEDLAVYFCQQDYSSWTFGGGTKVEIK | markedly reduced | except for PR302334-26, bound to human UCN1 peptides |  |  |  |  |  | 
2 | PR302334-24: humanized variant of PR302334; VH SEQ ID NO: 275, VL SEQ ID NO: 328 (antibody, V domains shown, PR302334-16 VH, PR302334-24 VH, PR302334-25 VH; PR302334-10 VL, PR302334-24 VL, PR302334-26 VL, PR302334-4 VL) VH: EVQLVESGGGLVKPGGSLRLSCAASGFTFSTYAMSWVRQAPGKGLEWVASIRSGGTTYYPDSVKGRFTISRDNAKNSLYLQMNSLRAEDTAVYYCTRGIDWGQGTTVTVSS VL: DIVMTQSPDSLAVSLGERATINCKASQSVNNDVAWYQQKPGQPPRLLIYYASNRYTGVPDRFSGSGSGTDFTLTISSLQAEDLAVYFCQQDYSSWTFGGGTKVEIK | significantly reduced |  | more efficacious; also recorded: superior efficacy | more complete inhibition | at least 17 days | more complete inhibition | more efficacious; also recorded: superior efficacy | 
3 | PR302038: humanized variant of PR301777; VH SEQ ID NO: 256, VL SEQ ID NO: 311 (antibody, V domains shown, PR302036 VH, PR302038 VH, PR302041 VH; PR302031 VL, PR302038 VL, PR302045 VL, PR302052 VL, PR302066 VL) VH: EMQLVESGGGLVQPGGSLRLSCAASGFTFSNYWMNWVRQAPGKGLEWVAEIRLKSNNYATHYAESVKGRFTISRDDSKSSVYLQMNSLKTEDTAVYYCTVGTLVYWGQGTLVTVSS VL: EIVLTQSPATLSLSPGERATLSCRASQSVSTSTYNYMHWFQQKPGQAPRLLIKFASNLESGIPARFSGSGSGTDFTLTISSLEPEDTAVYYCQHSWEIPYTFGQGTKLEIK |  |  |  |  |  |  |  | reduced
